target: T1, human IgE (human, UniProt P01854 1-428); test: ELISA, clone lysate on IgE-coated plate
T1 construct: written under the same molecule; also called IgE (Abcam ab65866); soluble IgE
Description: Each amino acid in CDR1 (SEQ ID NO:3), CDR2 (SEQ ID NO:68), and CDR3 (SEQ ID NO:74) was randomly replaced such that the 20 natural amino acids would likely all have been sampled at every position. The expression vector for the VHH containing the mutagenized CDRs was then transfected into E. coli, and at least 96 clones were randomly chosen for each position mutated in each CDR. This gives likely coverage of all potential mutations at each position since the probability to get any given amino acid at that position is 5%. […] The heat maps represent the relative binding for each clone determined by the range of OD values from the ELISA background to WT CDR binding (FIGS. 16A-16C). Site numbering for each residue tested is indicated by the inset tables in FIGS. 16A-16C.

T1 sequence (P01854 other isoform, or with tags, fused parts or gaps limits assumed, form in doubt): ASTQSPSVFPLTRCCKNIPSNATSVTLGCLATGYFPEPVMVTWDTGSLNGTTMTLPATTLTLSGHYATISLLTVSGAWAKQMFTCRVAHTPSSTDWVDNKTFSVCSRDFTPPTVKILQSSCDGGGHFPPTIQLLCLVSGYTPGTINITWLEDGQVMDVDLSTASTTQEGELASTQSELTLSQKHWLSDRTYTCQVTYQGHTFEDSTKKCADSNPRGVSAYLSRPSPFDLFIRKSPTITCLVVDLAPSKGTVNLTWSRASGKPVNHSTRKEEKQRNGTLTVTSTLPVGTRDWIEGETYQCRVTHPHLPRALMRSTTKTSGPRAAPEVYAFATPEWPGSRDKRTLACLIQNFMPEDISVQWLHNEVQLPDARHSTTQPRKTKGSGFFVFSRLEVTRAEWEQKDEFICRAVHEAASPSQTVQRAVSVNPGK

| Binder | Confirm OD450 Duplicate1 | Confirm OD450 Duplicate2 | R1 Screening OD450 |
| --- | --- | --- | --- |
| 2-1F11 (VHH, also called hzB10v40 VHH, CDR1 site 2 L to I) VHH: EVQLLESGGGEVQPGGSLRLSCVASGITFSSYNMGWLRQAPGKEREFVGLSGSSSTSTYYAESVKGRFTISRDNAKNTVYLQMTSLRAEDTAVYYCAARRLLSTYWSDRSWDFWGQGTLVTVEP | 0.647 | 0.601 | 0.754 |
| 2-2C3 (VHH, also called hzB10v40 VHH, CDR1 site 2 L to V) VHH: EVQLLESGGGEVQPGGSLRLSCVASGVTFSSYNMGWLRQAPGKEREFVGLSGSSSTSTYYAESVKGRFTISRDNAKNTVYLQMTSLRAEDTAVYYCAARRLLSTYWSDRSWDFWGQGTLVTVEP | 0.621 | 0.62 | 0.914 |
| 4-1F11 (VHH, also called hzB10v40 VHH, CDR1 site 4 F to P) VHH: EVQLLESGGGEVQPGGSLRLSCVASGLTPSSYNMGWLRQAPGKEREFVGLSGSSSTSTYYAESVKGRFTISRDNAKNTVYLQMTSLRAEDTAVYYCAARRLLSTYWSDRSWDFWGQGTLVTVEP | 0.582 | 0.483 | 0.798 |
| 4-1F10 (VHH, also called hzB10v40 VHH, CDR1 site 4 F to Y) VHH: EVQLLESGGGEVQPGGSLRLSCVASGLTYSSYNMGWLRQAPGKEREFVGLSGSSSTSTYYAESVKGRFTISRDNAKNTVYLQMTSLRAEDTAVYYCAARRLLSTYWSDRSWDFWGQGTLVTVEP | 0.697 | 0.545 | 0.709 |
| 3-1B10 (VHH, also called hzB10v40 VHH, CDR1 site 3 T to K) VHH: EVQLLESGGGEVQPGGSLRLSCVASGLKFSSYNMGWLRQAPGKEREFVGLSGSSSTSTYYAESVKGRFTISRDNAKNTVYLQMTSLRAEDTAVYYCAARRLLSTYWSDRSWDFWGQGTLVTVEP | 0.57 | 0.594 | 0.904 |
| 3-1B9 (VHH, also called hzB10v40 VHH, CDR1 site 3 T to N) VHH: EVQLLESGGGEVQPGGSLRLSCVASGLNFSSYNMGWLRQAPGKEREFVGLSGSSSTSTYYAESVKGRFTISRDNAKNTVYLQMTSLRAEDTAVYYCAARRLLSTYWSDRSWDFWGQGTLVTVEP | 0.585 | 0.634 | 0.945 |
| 5A1 (VHH, also called hzB10v40 VHH, CDR1 site 5 S to K) VHH: EVQLLESGGGEVQPGGSLRLSCVASGLTFKSYNMGWLRQAPGKEREFVGLSGSSSTSTYYAESVKGRFTISRDNAKNTVYLQMTSLRAEDTAVYYCAARRLLSTYWSDRSWDFWGQGTLVTVEP | 0.609 | 0.573 | 0.914 |
| 4-2E2 (VHH, also called hzB10v40 VHH, CDR1 site 4 F to G) VHH: EVQLLESGGGEVQPGGSLRLSCVASGLTGSSYNMGWLRQAPGKEREFVGLSGSSSTSTYYAESVKGRFTISRDNAKNTVYLQMTSLRAEDTAVYYCAARRLLSTYWSDRSWDFWGQGTLVTVEP | 0.579 | 0.586 | 1.05 |
| 3-1A1 (VHH, also called hzB10v40 VHH, CDR1 site 3 T to V) VHH: EVQLLESGGGEVQPGGSLRLSCVASGLVFSSYNMGWLRQAPGKEREFVGLSGSSSTSTYYAESVKGRFTISRDNAKNTVYLQMTSLRAEDTAVYYCAARRLLSTYWSDRSWDFWGQGTLVTVEP | 0.607 | 0.572 | 0.896 |
| 3-1H1 (VHH, also called hzB10v40 VHH, CDR1 site 3 T to I) VHH: EVQLLESGGGEVQPGGSLRLSCVASGLIFSSYNMGWLRQAPGKEREFVGLSGSSSTSTYYAESVKGRFTISRDNAKNTVYLQMTSLRAEDTAVYYCAARRLLSTYWSDRSWDFWGQGTLVTVEP | 0.567 | 0.559 | 0.857 |

Reference: patent publication US20250163186A1 (PHYLAXIS BIOSCIENCE, published 2025)
